According to the DeepSol protein solubility set:

Experiment: soluble on expression in E. coli; label from the status in PepcDB or PDB records

MSLKVFLKKGKEKKVKHFYPWVFRDEVEKIEGEGIVAELYDSEGNFLALGTYSPYSRIAFRVLSYEREEVNEEFFKRRLRESELLRRDIPSNAYRLAFSESDLLSGLIIDRYGDAFVIQVRSYPMEILKEKVLKTLVEEFNPAFVYERSDFKGRREEGLKEFKGLLYGKLENPLIIEEREFKFLVDVVEGLKTGFYLDQRDNREYVRNLVKEGDRVLDLFCYSGGFSVYCANRGAKVVGVDINKRAVELARENAKLNSVKADFVLGNAFDFIQESKEEWDLIIADPPAIAKTKKEKESILWAIWKLAYYSFQKLKKGGSLFICSCTYQISSEEMIRQVRLASTDVKRRIIIKSLNLQPIDHPYLPTFPESLYLKCLHAIVIDEGHHHHHH
soluble on expression in E. coli: soluble

MSLTKLYYEDQYIKEFKGEIIEVKEIDGKFHVLLDQTAFFPGGGGQMGDLGLIDGIKVLDVYEEEGKVYHVLEKEPKKLKNLQCELDWERRFDGMQQHLGQHLLSGCFYDLFGANTCGFHLGKEISTVDIVGFLDEKTIREAEKEANRLIFENLEVKSYAPSKKELKKVKTRRALPKTDEEIRIVEIVGLDLNACCGVHPRNTRDLQVIKIRRWEKHKNATRIEYVAGNRAVSEGHHHHHH
soluble on expression in E. coli: soluble

MGSDKIHHHHHHMKSYFVTMGFNETFLLRLLNETSAQKEDSLVIVVPSPIVSGTRAAIESLRAQISRLNYPPPRIYEIEITDFNLALSKILDIILTLPEPIISDLTMGMRMINTLILLGIIVSRKRFTVYVRDEGGGSRVISFNDNTIRALMRDYSREEMKLLNVLYETKGTGITELAKMLDKSEKTLINKIAELKKFGILTQKGKDRKVELNELGLNVIKLNKSVIESSKSSEELVKENKGKEVNIPY
soluble on expression in E. coli: not soluble

MSLSFPQLHTVTSYSLLSSTVRIRSYVKQAKALGYQTLAITDINVLHGAVEFYEACQEAGIQPIIGLRLEYTPAEKEGHSELLLFAKNLKGYQQLMQLSSSKMTTEGPFYLAEHQSLLSDLFAVTLSAKGEVAQTFFEDEQQAVHAFQQLASYFDPQSLFVEHSFSMNQQRNPALFSFYQREQLPGVALQEVRHLTREEGFAVTVLESIKENNQLNITSQTPEIEGLNYLREAETTMEQMLQEGHHHHHH
soluble on expression in E. coli: not soluble

MEYFNAGGGGSTGNGSTDPYAVIPQQFGNGGQQPQQQVFTDYQQDGSATDYETYQQQQQQYRAAQASQQSSSMYYQNQMTAAQANYFPIHSASEHDFLGPQQPPSATTSVSGAAGAPYQSASGGNKEFMMQHQQRRGNQSGQQQQNQPSQQNNQQQQNQGARQQHPQQMQQQQQSNQSAHFMHQQLQAVQQQQAQQMHHRLQGAPINPQQFMVPPPTMMQPQQMQQAQQQQAQQMHQMQIHHQQHPQMMQQHAQQGYHPHQQNQQHQAGQHQQSHHQSQNHNQHRNHNQSHSGPHHIPQNLMMPRCMLKDWPIRCVVEGKYHAVIIGPNGSTIKDIASSTRCRVDFVNLSKKERTVLGNNDRILTVHGVAEQATKAVARILDVIQSEAVKDDVNVGADTVLRMRAHNQLCGRLIGKAGSSIKEIMQKTGTNITVTKYIEPPGGISGLTANELLGLMERTIMVRGPSIEAVVQAEALISAKLKKCYESDSQLRAQSMQCPMPPMMMPPILPPGASSSAVSAPHFIPTPPGVLQIQPGTTNLRQVRMWVPDSMIGALIGAKGKNIKMIIRDTGASVKIEAPEEKTQREAEEAEKKRKLDETDSGCEGVASGDHPQEFLEDNATINSSDAIEEKPKPVSERMVTINGDDLQLLKAQSYVFSKIAETSSSLPSSGMDGDRSHMLRIRTEVSVPTRIIGRIIGKGGQNVRELQRITGAVVKIPEEERNGGEVYRHDDGLEEDMTMIRTIGNMYSTHNVQFRLAHLVNEYYRSGDHRNKSSDYKGGRPHSAPSSGQEKDGSALEKMDQLGTIAPISNSNRASPKSVSPPKSKSP
soluble on expression in E. coli: not soluble

MDKALTNHVIILSFDCLSALDFPILQKLPHFQSLIKKGTVVEKVEPIYPSVTYPSHSTIVTGNYPNKHGVVSNTLLQPGRESPDWHWYRKSIKGTTLYDEARKANLTTAALLWPVTGRANIDYNLPEIFPNRPWQNQVLVSLFSGSPLYQLDLNRRFGHIRNGLSQPELDDFVLASAVHTIQTKKPNIMFVHFTDLDTQRHYHGFESNETIAAIQRHDERLGKIIQALKESDLYEESTIIALGDHSALSENKSIQLNVLFHQRGLISLNKKRKLVDWKAYCQSCDGSAYVYVKDKNDTDTIREVQLLLEELLQNKQNGIEFILHDEAAKDCGADGNCLFMLEAREGYYFTENYTGDFIKEITEKDVTLSKKYTFGTHGYSPTKPNYETIFIAAGKGIKSGVTVPYMRLIDEGPTIARLLGLHLGETDGAIVEDLLQLLEHHHHHH
soluble on expression in E. coli: soluble

SNALFSSRDILEVLQDIHMETGETVAIATKNDIYLQYIQIIESVHALRFHVDENAIRPLTMSSNGWMLMSTMNDKAIDNTVRRANTITQKDGIRFEVDDMMARIRQVREQGYASAEHIPFVGGGTICVLLPMTIQGQPVTMGLGGALDRIKQNYDRYLELLLNGVQQLKKSDSFHQPI
soluble on expression in E. coli: soluble

MPFENAPHLVFWEVTKACPLTCKHCRANAIDKPLPGELNTEESRKLLEDIARFGKVVIVFTGGDPLSRSDIFELMEYAKSLGLVVSIAPSPSHRLDDETMKIISNYARYMSISLDGATSQTHDWLRGLGSYKYALRGIELGLKYGIQVQVNTLVWKKSYSELPFVVKLLKEMGVKIWEVFFLIPVGRGTTELDIPRDKYKDVIDFLVEATRYDLIVRTVEAPFFRRAKLEYTPATTNDNELVSTLRELLGEPVKEADKSILPTRDGAGVIFIGYNGDVYPSGFLPLYLGNVKKESLVDIYRKSEVLKKIKDSRFEGKCGICKYNNICGGSRARAFAVYNNPFAEDPMCPY
soluble on expression in E. coli: not soluble

GAMGSQQIATAKDKYEWLVSRIVKNHNENWLSVSRKMQASPEYQDYVYLEGTQKAKKLFLQHIHRLKHE
soluble on expression in E. coli: soluble

EHLLEELESELVRRVYSTHFPPQVSIDEGQAQLACAEFHAVTPEEGQDLLVLSGDHQAQNNQGHYGLTDTFLDIADEFGIQRVFALGGVPTGELIEEYDVLGATTTEDFKETLEESGVAFREDEPAGGIVGVSGLLLGLSKRRDVPASCLMGETSGYLVDPKSAQAVLEILQDVIGFEVDYSSLEDRADEMEEVVRKIQEMEQQNSPSPADEDLRYIG
soluble on expression in E. coli: not soluble

MGSDKIHHHHHHMSKKVVVTGANGYIGAHLIAELQKHSQHFQTIAVDIDDKYIPKGVTFVSMDLLNEARKETLYKECGEPDICVHLAWRDGFQHNALSHIDDLPCHFHFLKNLADHGTTHFAIAGSFREYGSVNGMVDQDAVVIPDNFYTLAKSMLKQALEIYFKEKNICLQWLRPFTVYGNDSRNNSIMSKIIRWEDEGKQSFPFTSGNEEYDYVSVYEVARQIAAVISQREVDGIIDCCTGKPTRLGDKIEGFIRENHFKIRPEYGAFPKREYDSSVIYGDNRKITEIIKKCILF
soluble on expression in E. coli: not soluble

MGSDKIHHHHHHMQQKKTTKEEYQKCVNVVVEYINQHLGEDIDLKSLARISNFSPFYFHRIMKAFLGEPIGTFIVRTRTEAAARLLRYSDIPIADIAYRIGYSSPSSLSKVFRQFYGISPLEYRNNKNFVIMKPAIIRPDLELKSEIKSIPARNVIYIRLSGDYKLNDYGGTWGRLWQFIKEQKLPMGDFSPLCIYHDDPKVTPAEKLRTDVCMVMPVQVAPKGDVGFKTLPAGRYAIFLYKGTYDNLQAVYDTIYGKCLPEMECTLRDEPSAERYLNNPCETAPEELLTEIYIPVE
soluble on expression in E. coli: not soluble

VDYKEWYDLRIEALQMQAQMHRSPLRGLIGARVGLIPHQLYIAHEVGQRFAPRVLLADEVGLGKTIEAGLIIHQQLKTGRAERILILVPDSLQYQWMIEMRRRFNLQFSLFDLTRTASIKEHDPDLNPFLTEQCIIASVDLMVDHDDLREQALEAGFDLLVVDEAHHLMWNEEEGGNDRYDLVEELAQQTPGVLLLTATPE
soluble on expression in E. coli: not soluble

MGTMHTSELLKHIYDINLSYLLLAQRLIVQDKASAMFRLGINEEMANTLGALTLPQMVKLAETNQLVCHFRFDDHQTITRLTQDSRVDDLQQIHTGIMLSTRLLNEVDDTARKKRA
soluble on expression in E. coli: not soluble

MENDMKSLSAAAQACVKKMRDAKVNEACIRTFIAQHVMVSKGETGSIPDSAIMPVDSLDALDSLTIECDNAVLQSTVVLKLNGGLGTGMGLCDAKTLLEVKDGKTFLDFTALQVQYLRQHCSEHLRFMLMDSFNTSASTKSFLKARYPWLYQVFDSEVELMQNQVPKILQDTLEPAAWAENPAYEWAPPGHGDIYTALYGSGKLQELVEQGYRYMFVSNGDNLGATIDKRVLAYMEKEKIDFLMEVCRRTESDKKGGHLARQTVYVKGKDGQPDAEKRVLLLRESAQCPKADMESFQDINKYSFFNTNNLWIRLPVLLETMQEHGGTLPLPVIRNEKTVDSSNSASPKVYQLETAMGAAIAMFESASAIVVPRSRFAPVKTCADLLALRSDAYVVTDDFRLVLDDRCHGHPPVVDLDSAHYKMMNGFEKLVQHGVPSLVECKRVTVKGLVQFGAGNVLTGTVTIENTDSASAFVIPDGAKLNDTTASPQQSTNKMRPLEHHHHHH
soluble on expression in E. coli: soluble

MKLNNHNLKEIYSLSLNELKEELFKLGLKSFISKQIYSWIYQKRIFNFDKFSNIAKNNVIILKENFSNNLLKINSYQSNSDGSIKFEFLTDKNLIINCMIIKFKNGFLIKINPFGINFKKEIINLSTNELVLQILLIQQFLDQRKLGNITNVIIKGLQDSLLNMDVVSNFINIINNENGLNIGKRKIAVWTSGINVDLIKWGQLQNQIELIISMNASNSLIYQKIMLKKLNQNWSFLKLIEQIKAYTKITNNRVVLEYLLIDKINDDLNYANELVELLKNILCYVLLIPYNLNNYRTSANLDDFFNILSVNKIRISKRIRKSNDLDISFKQLKIKELEHHHHHH
soluble on expression in E. coli: not soluble

MKTIRYALKKEKEMMKKFIAPLLALLVSGCQIDPYTHAPTLTSTDWYDVGMEDAISGSAIKDDDAFSDSQADRGLYLKGYAEGQKKTCQTDFTYARGLSGKSFPASCNNVENASQLHEVWQKGADENASAIRLN
soluble on expression in E. coli: not soluble

MSLTEISRFDAYPPTLTVNPIVPADAPATEHLVWTIAQAAEERKAGDLVILKVTDVSYLADYFVICTGFSRTQVRAIADNIEKQVELVHGQLPTHTEGNSESIWVLQDFGDVLVHTFMPEEREFYKLEAFWGHAQEQTLADIATAIGVAYNAPTSPEGHHHHHH
soluble on expression in E. coli: soluble

MATVDPIRYPIGTFQAPQQFEAGEVQEWIAAIRGLPSDLRTAVSGLNDEQLNTPYREGGWTVAQVVHHLADASMNAFLRTKWGVTEDGPTVKPFAESEWAKTADACLLPIEPSLLLLDGLHARWAALLESMTEADFHRTVRPEGAAGEMPLYVLTALYAWHGKHHTAQVASLRKRKGW
soluble on expression in E. coli: soluble

MVKQLNSVEAFREFIHQYPLAVVHVMRDQCSVCHAVLPQIEDLMQSYPNVPLAVINQSQVEAIAGELNIFTVPVDLIFMNGKEMHRQGRFIDMQRFEHHLKQMNDSVNNDVDEHEYRK
soluble on expression in E. coli: soluble

MGSDKIHHHHHHMSDIQLSLLNDFQRGFPLTSTPFDAIAQRLGLDVEALLDTLRRLTREGVVSRVGAVFRPNRVGVSTLAAMAVPEGRLDEVARLVSARPEVNHNYEREHRFNLWFVAAAANPAQLEQALHDIEQQTGLAAMRLPMVQDYHIDLGFDLRRSVGLTDRHQQKAAPSRALELDALDYVLVEAIQEGLPLVARPYAEVAAFIGTSEADVLIRLGRLLDHGVIKRLGIVVRHHELGFRANAMVVWNIPDEQVDEFGRCVGASGLVNLCYQRPRRLPEWPYNLFCMIHGKDRDAVLEHLDHLRDQCGLTDFPCEVLFSKRRFKQTGARYLAAQPKAAAEAT
soluble on expression in E. coli: not soluble

MSLEAIVFDRSEPENVSVKVLDQLLLPYTTKYVPIHTIDDGYSVIKSMQVRGAPAIAIVGSLSVLTEVQLIKHNPTSDVATLYSLVNWESTKTVLNKRLDFLLSSRPTAVNLSNSLVEIKNILKSSSDLKAFDGSLYNYVCELIDEDLANNMKMGDNGAKYLIDVLQKDGFKDEFAVLTICNTGSLATSGYGTALGVIRSLWKDSLAKTDK
soluble on expression in E. coli: soluble
